For 1 molecule, IC50 and Ki results are on record in patent US20200407397A1 (published 2020).

The target of test [1] is T1, recombinant LDHA (human, UniProt P00338 1-332).
In test [2] the target is T1, recombinant LDHA. This is another data set of the same source.

B1: FLCN-10 peptide (peptide)
peptide: AQRMNTAFTP
Regarding B1, the IC50 in the test with recombinant LDHA [1] amounted to 82.2 nM. The Ki with recombinant LDHA [2] was 57.4 nM.
